Test results as given in patent publication US20250042968A1, “EPHRIN LIGAND MIMETIC PEPTIDES FOR THE TREATMENT OF NEURODEGENERATIVE DISEASES” (University of Miami, priority 2022, published 2025).

T1: EphB2, P29323
T1 chain: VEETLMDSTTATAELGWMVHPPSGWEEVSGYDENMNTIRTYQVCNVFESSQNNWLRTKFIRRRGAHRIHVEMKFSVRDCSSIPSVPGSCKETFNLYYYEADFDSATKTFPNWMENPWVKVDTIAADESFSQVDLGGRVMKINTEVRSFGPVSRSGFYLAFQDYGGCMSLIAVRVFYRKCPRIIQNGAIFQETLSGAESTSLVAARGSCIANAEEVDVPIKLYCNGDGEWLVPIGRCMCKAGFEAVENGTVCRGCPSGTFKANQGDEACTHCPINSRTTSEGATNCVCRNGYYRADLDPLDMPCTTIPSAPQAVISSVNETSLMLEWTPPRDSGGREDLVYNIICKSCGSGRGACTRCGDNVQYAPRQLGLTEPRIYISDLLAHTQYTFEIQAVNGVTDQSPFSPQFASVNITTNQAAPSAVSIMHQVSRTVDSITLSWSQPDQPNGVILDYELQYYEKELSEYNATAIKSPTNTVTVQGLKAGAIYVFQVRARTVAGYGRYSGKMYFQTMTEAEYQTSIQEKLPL

T2: EphB3, P54753
T2 chain: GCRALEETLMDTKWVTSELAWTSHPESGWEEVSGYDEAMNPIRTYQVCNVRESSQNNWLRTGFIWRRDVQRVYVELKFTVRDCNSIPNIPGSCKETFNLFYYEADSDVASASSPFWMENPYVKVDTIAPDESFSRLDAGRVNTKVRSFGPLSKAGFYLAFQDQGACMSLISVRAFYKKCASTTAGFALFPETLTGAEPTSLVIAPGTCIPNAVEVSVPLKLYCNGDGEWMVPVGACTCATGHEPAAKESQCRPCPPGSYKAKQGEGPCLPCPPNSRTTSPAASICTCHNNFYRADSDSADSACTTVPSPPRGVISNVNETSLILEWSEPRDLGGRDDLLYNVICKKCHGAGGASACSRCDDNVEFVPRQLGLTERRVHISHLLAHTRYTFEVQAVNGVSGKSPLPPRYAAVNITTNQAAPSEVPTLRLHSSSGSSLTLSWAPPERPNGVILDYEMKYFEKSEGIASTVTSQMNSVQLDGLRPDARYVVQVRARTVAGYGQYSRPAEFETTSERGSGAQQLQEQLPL


Legend:
Test in all cases: BLI
Settings in all cases: modification not given
EphB2, P29323 = biological target: T1, EphB2, P29323
EphA2, P29317 = biological target: EphA2, P29317
EphB3, P54753 = biological target: T2, EphB3, P54753

Sequence of EphA2, P29317 (P29317 25-534): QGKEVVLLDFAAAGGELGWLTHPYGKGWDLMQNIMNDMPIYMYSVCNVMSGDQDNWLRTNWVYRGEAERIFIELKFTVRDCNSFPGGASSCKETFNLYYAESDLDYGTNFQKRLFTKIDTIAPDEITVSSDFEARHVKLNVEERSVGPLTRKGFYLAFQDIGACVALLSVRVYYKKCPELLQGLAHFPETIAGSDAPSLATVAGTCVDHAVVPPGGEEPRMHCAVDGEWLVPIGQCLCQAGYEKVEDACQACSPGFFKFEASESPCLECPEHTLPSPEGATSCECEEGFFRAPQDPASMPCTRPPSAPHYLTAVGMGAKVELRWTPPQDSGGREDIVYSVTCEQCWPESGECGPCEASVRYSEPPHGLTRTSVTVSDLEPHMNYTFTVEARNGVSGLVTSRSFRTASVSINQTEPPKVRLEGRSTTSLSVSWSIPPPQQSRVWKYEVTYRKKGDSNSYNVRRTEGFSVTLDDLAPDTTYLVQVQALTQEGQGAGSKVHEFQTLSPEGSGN

| Kd (EphB2, P29323) | Kd (EphA2, P29317) | Kd (EphB3, P54753) | Binder |
| --- | --- | --- | --- |
| 263 µM | 178 µM | 156 µM | QEFSPNLWGLEFKKN [xEFN_RBD4] |
| – | – | 5070 µM | KFQLFSPFLWGFEF [xEFN_RBD2] |
